Source: article PMC7806596, “Regulation of trehalase activity by multi-site phosphorylation and 14-3-3 interaction” (Scientific Reports, 2021)
Each block holds one molecule with its values, some of them ahead of it.

Columns and labels:
Bmh1 = Bmh1 (UniProt P29311); assay: anti-FLAG co-IP, anti-V5 blot; conditions: reference: wild type
[1] = target: full-length 3xFLAG-tagged Nth1^S83A (S. cerevisiae) (UniProt P32356); assay: co-IP; Nth1-3xFLAG precipitated with anti-FLAG M2 magnetic beads, Bmh1-V5 detected by blot; stationary phase cells recovered by dilution in 1% glucose minimal medium (5 min after glucose replenishment); 25 mM Tris-HCl pH 7.5, 150 mM NaCl, 5 mM CaCl2, 0.1% Triton X-100, 4 °C, 1 h
[2] = target: T1, Nth1-Strep phosphorylated in vitro with PKA and CyclinB-Cdk1 (S. cerevisiae, UniProt P32356 1-751, full phosphorylation by Cdk1 (site S66) and partial phosphorylation of the PKA sites by PKA (15 nM or 1.5 nM) in vitro); assay: pull-down; called co-IP by the paper; 6xHis-Bmh1 from BL21RP lysate loaded on Chelating Sepharose and washed, mixed 10 min with in vitro phosphorylated Nth1-Strep (200 ng per sample); washed with 25 mM Tris-HCl pH 7.4, 150 mM NaCl, 5 mM CaCl2; bound Nth1-Strep detected by blot (StrepMAB-Classic); conditions: both partners purified
T1 construct: neutral trehalase Nth1, S. cerevisiae, full length, expressed from pASK-Iba3; also called Nth1-Strep-tagged; source: E. coli BL21(DE3)RP, purified (Strep-Tactin II Superflow), phosphorylated in vitro with PKA and cyclin B-Cdk1
T1 sequence (looked up): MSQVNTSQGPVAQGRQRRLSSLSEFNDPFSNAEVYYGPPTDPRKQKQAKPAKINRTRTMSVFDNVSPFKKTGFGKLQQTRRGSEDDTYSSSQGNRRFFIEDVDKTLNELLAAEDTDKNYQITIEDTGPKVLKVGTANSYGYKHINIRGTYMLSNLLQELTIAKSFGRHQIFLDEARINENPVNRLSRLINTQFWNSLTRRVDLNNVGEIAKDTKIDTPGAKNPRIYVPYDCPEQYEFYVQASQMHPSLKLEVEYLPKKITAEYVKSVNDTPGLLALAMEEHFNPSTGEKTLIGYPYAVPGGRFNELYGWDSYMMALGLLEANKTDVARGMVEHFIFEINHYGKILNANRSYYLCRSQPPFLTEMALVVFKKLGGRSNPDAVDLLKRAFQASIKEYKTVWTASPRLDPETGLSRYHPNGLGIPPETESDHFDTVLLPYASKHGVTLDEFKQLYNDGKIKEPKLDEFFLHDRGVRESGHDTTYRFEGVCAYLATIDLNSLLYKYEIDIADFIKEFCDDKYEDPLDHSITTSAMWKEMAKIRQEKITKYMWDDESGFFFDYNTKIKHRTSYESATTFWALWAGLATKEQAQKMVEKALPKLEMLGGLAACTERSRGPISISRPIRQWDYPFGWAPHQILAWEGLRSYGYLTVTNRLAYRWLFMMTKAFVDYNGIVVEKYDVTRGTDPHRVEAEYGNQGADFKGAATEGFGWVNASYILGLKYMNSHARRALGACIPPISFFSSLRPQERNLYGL

[3] = target: T2, recombinant full-length 6xHis-tagged Nth1 phosphorylated in vitro with PKA (S. cerevisiae, UniProt P32356 1-751, fully phosphorylated with 3 nM PKA in vitro); assay: phosphatase shielding assay (Phos-tag autoradiograph and mass spectrometry); 1 µM 6xHis-Nth1 phosphorylated with 3 nM PKA in presence or absence of Bmh1 (5:1, Bmh1:Nth1); at 30 min PKA inhibitor and lambda phosphatase (90 U/µl, 1 mM MnCl2) added; conditions: both partners purified
T2 construct: neutral trehalase Nth1, S. cerevisiae, full length, expressed from pET28a; also called 6xHis-Nth1
T2 sequence (looked up): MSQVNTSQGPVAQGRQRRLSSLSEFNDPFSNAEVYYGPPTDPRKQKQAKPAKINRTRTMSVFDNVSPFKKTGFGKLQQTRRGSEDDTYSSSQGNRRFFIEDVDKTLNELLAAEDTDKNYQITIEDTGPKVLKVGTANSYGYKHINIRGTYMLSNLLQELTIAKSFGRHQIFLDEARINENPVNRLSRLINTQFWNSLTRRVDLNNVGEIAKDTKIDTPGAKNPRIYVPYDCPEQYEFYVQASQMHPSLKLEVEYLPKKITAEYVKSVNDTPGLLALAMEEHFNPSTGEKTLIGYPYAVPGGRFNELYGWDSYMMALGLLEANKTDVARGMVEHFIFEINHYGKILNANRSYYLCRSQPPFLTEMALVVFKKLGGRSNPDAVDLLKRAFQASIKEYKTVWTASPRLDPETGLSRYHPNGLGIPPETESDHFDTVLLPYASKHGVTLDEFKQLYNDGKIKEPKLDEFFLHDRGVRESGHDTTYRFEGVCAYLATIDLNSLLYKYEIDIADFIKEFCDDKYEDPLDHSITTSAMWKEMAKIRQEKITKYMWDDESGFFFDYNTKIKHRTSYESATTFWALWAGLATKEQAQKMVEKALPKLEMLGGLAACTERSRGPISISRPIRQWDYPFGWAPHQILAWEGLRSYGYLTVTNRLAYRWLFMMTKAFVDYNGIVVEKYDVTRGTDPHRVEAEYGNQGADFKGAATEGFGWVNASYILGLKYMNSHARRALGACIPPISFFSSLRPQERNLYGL

Molecule: Nth1 (from UniProt P32356) S60A
- percent of reference (Bmh1; sites S60): 30%

Molecule: Nth1 (from UniProt P32356) S66A
- percent of reference (Bmh1; sites S66): 50%

B1: recombinant full-length 6xHis-tagged Bmh1 (natural protein, S. cerevisiae, UniProt P29311 1-267, looked up)
chain: MSTSREDSVYLAKLAEQAERYEEMVENMKTVASSGQELSVEERNLLSVAYKNVIGARRASWRIVSSIEQKEESKEKSEHQVELICSYRSKIETELTKISDDILSVLDSHLIPSATTGESKVFYYKMKGDYHRYLAEFSSGDAREKATNASLEAYKTASEIATTELPPTHPIRLGLALNFSVFYYEIQNSPDKACHLAKQAFDDAIAELDTLSEESYKDSTLIMQLLRDNLTLWTSDMSESGQAEDQQQQQQHQQQQPPAAAEGEAPK
notes: 14-3-3 protein Bmh1, S. cerevisiae, full length, expressed from pET28a; also called 6xHis-Bmh1; Bhm1; source: E. coli BL21(DE3)RP
- binding result [2]: binds
- binding result [3]: binds

Other lines, results leading:

- bound Bmh1, percent normalised to WT [1]: < 10%
Molecule: V5-tagged Bmh1 (from UniProt P29311 1-267) (natural protein)

- percent of reference (Bmh1; sites S83): < 10%
Molecule: Nth1 (from UniProt P32356) S83A
